These are literature values, as cited in article PMC8100458.

For data set [1], the target named is Asef peptide 181-192 (Homo sapiens). In words: FP competition.
Data set [2] addresses Asef peptide 179-193 (Homo sapiens). Kind of data set: FP competition.
Data set [3] has as its target Asef peptide 187-192 (Homo sapiens). In words: FP competition.
Data set [4] deals with Asef peptide 183-190 (Homo sapiens). In words: FP competition.
The target in the next data set is Asef (Homo sapiens) (UniProt Q9NR80). In words: ITC.
UniProt Q9NR80, sequence (Q9NR80 whole entry): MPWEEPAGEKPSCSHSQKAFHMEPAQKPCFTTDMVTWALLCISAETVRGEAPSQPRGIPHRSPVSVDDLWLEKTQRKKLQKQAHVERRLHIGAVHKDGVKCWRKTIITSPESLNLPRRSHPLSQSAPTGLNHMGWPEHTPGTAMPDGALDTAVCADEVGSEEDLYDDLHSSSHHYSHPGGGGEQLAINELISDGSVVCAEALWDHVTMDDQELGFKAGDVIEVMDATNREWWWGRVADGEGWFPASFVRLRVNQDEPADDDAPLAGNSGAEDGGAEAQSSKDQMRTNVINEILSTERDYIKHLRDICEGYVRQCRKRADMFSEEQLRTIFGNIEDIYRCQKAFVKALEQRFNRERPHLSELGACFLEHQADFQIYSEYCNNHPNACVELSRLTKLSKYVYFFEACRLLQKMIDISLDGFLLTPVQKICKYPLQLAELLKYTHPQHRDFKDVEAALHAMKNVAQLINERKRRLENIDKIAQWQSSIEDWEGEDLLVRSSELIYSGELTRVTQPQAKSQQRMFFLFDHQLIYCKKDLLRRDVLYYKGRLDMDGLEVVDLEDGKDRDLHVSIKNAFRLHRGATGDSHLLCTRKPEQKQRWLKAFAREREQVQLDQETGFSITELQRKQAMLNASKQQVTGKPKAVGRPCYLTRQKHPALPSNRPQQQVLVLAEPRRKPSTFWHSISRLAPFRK

The Ki is the dissociation constant of the complex between target and ligand, obtained from inhibition or displacement. Usually Kd stands for a measure of binding affinity in units of concentration. On to APC (from UniProt P25054), for which the Ki in data set [1] is 49.1 µM; in data set [2] it was 17.1 µM; in data set [3], greater than 300 µM; in data set [4], greater than 300 µM. For the same substance, the Kd with Asef (Homo sapiens) is 0.0178 µM.
